From patent US7700318 (AMPROTEIN, dated 2010) come the findings set out here.

This experiment addresses T1, recombinant human IL-1 receptor extracellular domain (human, UniProt P14778 18-336).
T1 construct: extracellular domain; also called in-house mammalian recombinant IL-receptor extracellular domain
T1 sequence (looked up): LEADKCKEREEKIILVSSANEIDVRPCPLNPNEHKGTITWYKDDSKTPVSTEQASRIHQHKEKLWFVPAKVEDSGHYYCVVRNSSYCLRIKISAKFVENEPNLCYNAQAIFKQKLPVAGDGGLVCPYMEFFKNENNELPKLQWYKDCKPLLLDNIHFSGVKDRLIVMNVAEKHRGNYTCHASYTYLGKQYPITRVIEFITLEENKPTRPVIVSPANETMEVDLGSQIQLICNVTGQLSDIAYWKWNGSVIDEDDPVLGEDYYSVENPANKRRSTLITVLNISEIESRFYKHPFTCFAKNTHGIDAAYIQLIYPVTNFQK
Description: ELISA: test proteins coated on 96-well plate, IL-1 receptor extracellular domain incubated at 37 C, detected with rabbit anti human IL-1 receptor antibodies and goat anti rabbit HRP (FIG. 5). Here is the method:
For IL-1 receptor binding assay, recombinant human IL-1 receptor extracellular domain was first produced in house using a mammalian host. TNFRII-Fc-IL-1ra, negative control TNFRII-Fc and positive control IL-1ra (KINERET) have been coated to 96-well plate. IL-1 receptor is then incubated at 37° C. for binding. The binding is detected using rabbit anti human IL-1 receptor extracellular domain antibodies, followed by goat anti rabbit […] conjugated with HRP.
(In an ELISA, binding on a coated surface is turned into a signal by an enzyme label.)

B1: TNFRII-Fc (ENBREL) (Fc fusion, UniProt P20333 23-257, looked up)
chain: LPAQVAFTPYAPEPGSTCRLREYYDQTAQMCCSKCSPGQHAKVFCTKTSDTVCDSCEDSTYTQLWNWVPECLSCGSRCSSDQVETQACTREQNRICTCRPGWYCALSKQEGCRLCAPLRKCRPGFGVARPGTETSDVVCKPCAPGTFSNTTSSTDICRPHQICNVVAIPGNASMDAVCTSTSPTRSMAPGAVHLPQPVSTRSQHTQPTPEPSTAPSTSFLLPMGPSPPAEGSTGD
notes: Marketed product; also called marketed TNFRII-Fc (ENBREL); not shown: Fc part of the marketed product
With B1, the binding result is listed as “no binding”.
